Assays:
[1] = biological target: recombinant human collagen Type I (purified product of TT080417-1-8 strain)
[2] = biological target: T1, recombinant human collagen Type III (purified product of TT061226-1-3 strain)
T1 chain: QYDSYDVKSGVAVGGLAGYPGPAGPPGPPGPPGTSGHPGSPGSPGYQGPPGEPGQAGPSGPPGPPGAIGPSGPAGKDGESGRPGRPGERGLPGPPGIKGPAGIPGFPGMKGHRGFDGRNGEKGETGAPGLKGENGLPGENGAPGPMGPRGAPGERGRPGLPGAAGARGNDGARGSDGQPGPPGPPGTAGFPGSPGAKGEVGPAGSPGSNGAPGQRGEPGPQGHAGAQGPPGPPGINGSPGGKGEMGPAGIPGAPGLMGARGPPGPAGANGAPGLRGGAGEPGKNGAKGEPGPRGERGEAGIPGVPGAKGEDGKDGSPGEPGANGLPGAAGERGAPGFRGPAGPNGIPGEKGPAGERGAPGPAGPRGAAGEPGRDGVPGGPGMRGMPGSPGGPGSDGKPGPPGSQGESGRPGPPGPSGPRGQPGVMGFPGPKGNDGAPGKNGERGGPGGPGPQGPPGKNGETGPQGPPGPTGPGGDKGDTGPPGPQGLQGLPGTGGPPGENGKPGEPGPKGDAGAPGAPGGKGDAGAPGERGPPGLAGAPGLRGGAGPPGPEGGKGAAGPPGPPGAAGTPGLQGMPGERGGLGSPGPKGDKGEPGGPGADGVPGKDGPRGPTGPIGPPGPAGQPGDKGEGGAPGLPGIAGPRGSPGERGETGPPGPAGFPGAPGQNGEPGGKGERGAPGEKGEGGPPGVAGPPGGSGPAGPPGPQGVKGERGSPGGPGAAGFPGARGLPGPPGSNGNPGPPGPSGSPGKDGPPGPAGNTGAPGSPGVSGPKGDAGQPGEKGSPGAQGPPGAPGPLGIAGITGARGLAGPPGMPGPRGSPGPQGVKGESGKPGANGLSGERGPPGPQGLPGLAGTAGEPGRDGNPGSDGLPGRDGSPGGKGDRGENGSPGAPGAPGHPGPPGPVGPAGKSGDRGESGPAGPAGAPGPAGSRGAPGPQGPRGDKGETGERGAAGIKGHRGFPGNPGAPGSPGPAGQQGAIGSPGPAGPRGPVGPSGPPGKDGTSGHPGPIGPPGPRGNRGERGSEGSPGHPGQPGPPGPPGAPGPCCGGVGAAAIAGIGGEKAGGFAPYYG

recombinant human collagen Type I (purified product of TT080417-1-8 strain), sequence (chain, as listed by the source, chain 1 of 2): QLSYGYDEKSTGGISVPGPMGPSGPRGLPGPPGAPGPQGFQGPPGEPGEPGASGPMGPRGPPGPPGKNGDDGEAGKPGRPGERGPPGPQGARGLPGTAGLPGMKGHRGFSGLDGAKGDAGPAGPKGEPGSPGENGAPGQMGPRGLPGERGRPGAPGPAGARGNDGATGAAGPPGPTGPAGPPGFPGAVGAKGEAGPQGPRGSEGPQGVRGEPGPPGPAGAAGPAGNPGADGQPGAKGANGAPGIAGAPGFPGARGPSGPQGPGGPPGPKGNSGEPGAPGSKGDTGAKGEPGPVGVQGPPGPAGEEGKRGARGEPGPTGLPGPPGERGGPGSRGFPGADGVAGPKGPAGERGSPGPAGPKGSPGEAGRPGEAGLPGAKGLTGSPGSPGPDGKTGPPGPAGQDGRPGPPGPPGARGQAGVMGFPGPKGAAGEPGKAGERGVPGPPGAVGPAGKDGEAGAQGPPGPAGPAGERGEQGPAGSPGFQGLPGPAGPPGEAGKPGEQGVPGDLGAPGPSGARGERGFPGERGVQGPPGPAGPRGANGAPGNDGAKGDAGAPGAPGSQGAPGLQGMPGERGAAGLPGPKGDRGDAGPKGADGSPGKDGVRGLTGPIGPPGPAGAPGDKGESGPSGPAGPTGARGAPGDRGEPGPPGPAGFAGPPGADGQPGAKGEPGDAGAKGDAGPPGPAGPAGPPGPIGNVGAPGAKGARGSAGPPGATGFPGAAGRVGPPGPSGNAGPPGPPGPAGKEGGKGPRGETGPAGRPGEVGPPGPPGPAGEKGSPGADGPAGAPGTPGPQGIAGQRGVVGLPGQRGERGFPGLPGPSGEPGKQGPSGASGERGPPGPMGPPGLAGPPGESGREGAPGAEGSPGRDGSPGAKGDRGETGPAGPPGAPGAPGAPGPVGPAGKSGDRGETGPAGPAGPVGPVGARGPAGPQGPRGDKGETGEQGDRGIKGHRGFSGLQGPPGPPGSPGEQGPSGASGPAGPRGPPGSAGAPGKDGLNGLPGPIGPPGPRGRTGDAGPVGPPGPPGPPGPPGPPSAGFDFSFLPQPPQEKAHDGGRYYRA
recombinant human collagen Type I (purified product of TT080417-1-8 strain), sequence (chain, as listed by the source, chain 2 of 2): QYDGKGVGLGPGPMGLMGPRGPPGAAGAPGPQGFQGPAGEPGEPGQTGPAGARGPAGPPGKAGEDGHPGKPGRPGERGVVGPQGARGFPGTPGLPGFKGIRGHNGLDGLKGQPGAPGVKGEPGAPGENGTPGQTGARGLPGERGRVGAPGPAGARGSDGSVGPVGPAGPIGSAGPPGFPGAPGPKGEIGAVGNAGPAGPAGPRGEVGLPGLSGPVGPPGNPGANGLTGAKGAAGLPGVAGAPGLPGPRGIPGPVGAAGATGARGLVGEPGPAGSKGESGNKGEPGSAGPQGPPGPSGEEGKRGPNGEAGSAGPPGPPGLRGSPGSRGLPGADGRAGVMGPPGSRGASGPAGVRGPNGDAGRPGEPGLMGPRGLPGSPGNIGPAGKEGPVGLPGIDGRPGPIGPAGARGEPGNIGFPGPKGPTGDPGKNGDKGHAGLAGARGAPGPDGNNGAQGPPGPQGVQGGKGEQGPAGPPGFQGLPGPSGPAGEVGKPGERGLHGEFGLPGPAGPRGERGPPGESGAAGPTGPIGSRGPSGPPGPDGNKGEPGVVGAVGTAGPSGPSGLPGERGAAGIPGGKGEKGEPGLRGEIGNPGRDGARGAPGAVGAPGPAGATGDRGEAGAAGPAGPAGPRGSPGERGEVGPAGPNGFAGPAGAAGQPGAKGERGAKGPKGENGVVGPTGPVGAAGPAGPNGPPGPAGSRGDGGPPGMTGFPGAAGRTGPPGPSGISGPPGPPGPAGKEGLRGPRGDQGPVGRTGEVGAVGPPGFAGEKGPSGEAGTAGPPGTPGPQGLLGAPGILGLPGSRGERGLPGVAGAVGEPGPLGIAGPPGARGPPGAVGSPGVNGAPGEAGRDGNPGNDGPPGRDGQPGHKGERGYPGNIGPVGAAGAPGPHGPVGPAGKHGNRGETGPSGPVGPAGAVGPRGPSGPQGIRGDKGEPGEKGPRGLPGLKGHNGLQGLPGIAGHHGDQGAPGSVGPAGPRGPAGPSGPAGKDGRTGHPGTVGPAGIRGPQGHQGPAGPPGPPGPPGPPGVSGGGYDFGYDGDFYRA

B1: lysyl hydroxylase 1 (protein)
chain: KGDAKPEDNLLVLTVATKETEGFRRFKRSAQFFNYKIQALGLGEDWNVEKGTSAGGGQKVRLLKKALEKHADKEDLVILFTDSYDVLFASGPRELLKKFRQSRSQVVFSAEELIYPDRRLETKYPVVSDGKRFLGSGGFIGYAPNLSKLVAEWEGQDSDSDQLFYTKIFLDPEKREQINITLDHRCRIFQNLDGALDEVVLKFEMGHVRARNLAYDTLPVLIHGNGPTKLQLNYLGNYIPRFWTFETGCTVCDEGLRSLKGIGDEALPTVLVGVFIEQPTPFVSLFFQRLLRLHYPQKHMRLFIHNHEQHHKAQVEEFLAQHGSEYQSVKLVGPEVRMANADARNMGADLCRQDRSCTYYFSVDADVALTEPNSLRLLIQQNKNVIAPLMTRHGRLWSNFWGALSADGYYARSEDYVDIVQGRRVGVWNVPYISNIYLIKGSALRGELQSSDLFHHSKLDPDMAFCANIRQQDVFMFLTNRHTLGHLLSLDSYRTTHLHNDLWEVFSNPEDWKEKYIHQNYTKALAGKLVETPCPDVYWFPIFTEVACDELVEEMEHFGQWSLGNNKDNRIQGGYENVPTIDIHMNQIGFEREWHKFLLEYIAPMTEKLYPGYYTRAQFDLAFVVRYKPDEQPSLMPHHDASTFTINIALNRVGVDYEGGGCRFLRYNCSIRAPRKGWTLMHPGRLTHYHEGLPTTRGTRYIAVSFVDP
composition ratio of hydroxylated lysine to the total lysine residues (amino acid analysis of purified collagen) [1]: a composition ratio of the hydroylated lysine to the total lysine residues was increased up to 50.1%
composition ratio of hydroxylated lysine to the total lysine residues (amino acid analysis of purified collagen) [2]: a composition ratio of hydroxylated lysine to the total lysine residues was increased up to 36.9%

From patent US20120245327
